Measured values taken from the DeepSol protein solubility set.

assay: soluble on expression in E. coli; label from the status in PepcDB or PDB records

| Sequence | soluble on expression in E. coli |
| --- | --- |
| MGSDKIHHHHHHMDVFSANQSAQGIVEEAQQANALDHPAAFEIPRSAVIDIKDSISGRTYPLFIKLPKSYRSQPNKRYPVIYLTDSWYSFQIVSGATRFPMNFNKMDEAIIVAISYSEGSRGSSSRNRDYTPSVNPAWKDITGGAAAHRDFIETTVFDYVERHYRAEAGSRIFVGNSFGGLFGTYVLMSKPEMFDSYILGSPSYWWDKGYIFELEKQFRKSAKPVSAKVFIGIGELEKKVNGVGEDMVKEAQAFYDLMQQWSSRPQTKLLIIPEADHQTAFPTTAIHGLQWILGKCPPKGNCLQGNLN | not soluble |
| RPLQGEATNLTDNTIFRIRQLKGTWNLLIIDSGKCEEYCQEKLYTLRQVRLAQHVDKDKVQRVWLINDDIRPDQETIDKFKGTRLVLANGKDLLKEFPAENKREDHIYVVDPMGNLMMRYPRNADPRKMVGDLKRLLKLSHLEH | not soluble |
| ADPAECSIKVMCRFRPLNEAEILRGDKFIPKFKGEETVVIGQGKPYVFDRVLPPNTTQEQVYNACAKQIVKDVLEGYNGTIFAYGQTSSGKTHTMEGKLHDPQLMGIIPRIAHDIFDHIYSMDENLEFHIKVSYFEIYLDKIRDLLDVSKTNLAVHEDKNRVPYVKGCTERFVSSPEEVMDVIDEGKANRHVAVTNMNEHSSRSHSIFLINIKQENVETEKKLSGKLYLVDLAGSEKV | soluble |
| MSQLNDSDIILFEYNFHYQNIRSKNTLDIAFGIDRNFLFGCGVAIASILLNNREISCEFHVFTDYISDKDKLYFSDLAKQYNSRINIYVINCDKLKSLPSTKNWTYATYFRFIIADYFYHKHEKILYLDADIACKGSIKELLDYQFSTNEIAAVVAERDVEWWQNRASVLTTPQLASGYFNAGFLLINIDEWNLNNISSKAIEMLRDPDWVSKITHLDQDVLNVLLNGKVKFISEKYNTRYSINYELKDKVDNPVNDDTVFIHYVGPTKPWHEWADYPVSRSFLIAKAASPWSKEDLLKPVNSNQYRYCAKHKFKQKHYMAGIFNYLKYYKEKCF | not soluble |
| SLRKERARSAEEPWTQNQQKLLELALQQYPRGSSDCWDKIARCVPSKSKEDCIARYKLLV | soluble |
| MAHHHHHHMNYAAVINGPFSSNNGNNHYSRLGYTPNGYGPQPNTTEQNPQMVPYQTFNSAAGQPVNVYQQIPPTSASRDPRTNIHIGSKLFVGQVPAMTTEEQLRPVFEPYGELLEVKIMRDPLGRSKGSAWVRYETNEMAMNAINALHEKHTVPPQTNPLRVQFATPNSVRHQQLQARYAVELKVPMNQYNFGGQMGGGTQQSGMVMLRSGASPNVVPPISANVGGRYMSAPFGGGPMESSSIMSGPYTSSANCFDGVNSSGNRRDLYSPLEQPQGTAPQLYQQQQQQQRGGFSSPVVTPPSVYNQASSTRQPTARNNNTKSGGGISMGSFESGHGMVNPNSNGAPTMANEMSTLDAGIALWEARNNNGLQGQEPREAAARVRSGERKEE | not soluble |
| MAHHHHHHMSDVIKLCEAEELKELFIKEYNEYLKLIKNVELYYEKLEINWKKFHLFYQQNKKDPFEYHKEKNKHNKIKKVQNKKKNINIHSDYQSIEKYFKMIQKKEIQNNCHYYKKFDYDKDSFILFTLKKNVNNAVELYININIEKLNKIKNYLLNYINDFCKRQINQIINLIILCEIKLNNLYISQKNHFTNNNIKIKHIHLIKNIIHFNQQFIFEVTKNLIPFFTNFNIFSSPDYFNYQFNYFNNCVEIMGE | not soluble |
| MARTAVPDNQPEITGFRIVLNNFEGPFDLLLQLISAKKLDVTDVALHKVTDDFVAYTRALGEFAELDEVTEFLVVAATLLDLKAARLLPRGEVDDLSDLELLESRDLLFARLLQYKAYKQVADQFARWQLAAQRRYPRAVGMEEQFSSLLPPVKISHTPKSFAELAASVFRPKPPDTVGTSHVHGVEVSVPEQAGKVLDLLVECGEGVWMDFPDLITGCRVSLEVVGRFLALLELYKARAVSLEQEESLGALRVSWTGIHVDPAIVAASNWA | not soluble |
| MDHALFTHFVGRPRHCRLEMLILDEQVSKRSWDTTVYHRRRKHLPRRRAPCGPQRPAEIPKRRKKAAVLLFWHDLCWLFRRLFFPREDSEPLMSDPARSPEEEELEHHHHHH | not soluble |
| MPRHRISGINWLAHYNELIRFWTRKTGSRGDVEDATHDVITKLLESNVSTISSPRSYLHSSIRNRLTDSYRQNKILDLVPIHDLPEDSHPLQPNDPVTHTCTMQLLTALKEALQELPLKCRQVFIWHRLEGYSQTEIAEKLDISVNMVEKYMIRATRHLRDRLQDHIPD | not soluble |
| MFTQLALLSVLAVFVAQATMNLPSQEQYNAELKSAGMSQAGIDGLNVLSQKFVSQYPVVQANKEAADKFLAEYTEEAQNYVKSMSPEDQKIYAESLKKYGLA | not soluble |
| MNTLGRFLRLTTFGESHGDVIGGVLDGMPSGIKIDYALLENEMKRRQGGRNVFITPRKEDDKVEITSGVFEDFSTGTPIGFLIHNQRARSKDYDNIKNLFRPSHADFTYFHKYGIRDFRGGGRSSARESAIRVAAGAFAKMLLREIGIVCESGIIEIGGIKAKNYDFNHALKSEIFALDEEQEEAQKTAIQNAIKNHDSIGGVALIRARSIKTNQKLPIGLGQGLYAKLDAKIAEAMMGLNGVKAVEIGKGVESSLLKGSEYNDLMDQKGFLSNRSGGVLGGMSNGEEIIVRVHFKPTPSIFQPQRTIDINGNECECLLKGRHDPCIAIRGSVVCESLLALVLADMVLLNLTSKIEYLKTIYNEN | soluble |
| MGSDKIHHHHHHETQPESAAFTAPSTDNPIRINFNENPLGMSPKAQAAARDAVVKANRYAKNEILMLGNKLAAHHQVEAPSILLTAGSSEGIRAAIEAYASLEAQLVIPELTYGDGEHFAKIAGMKVTKVKMLDNWAFDIEGLKAAVAAYSGPSIVYLVNPNNPTGTITPADVIEPWIASKPANTMFIVDEAYAEFVNDPRFRSISPMITQGAENIILLKTFSKIHAMAGMRVGYAVAHPTVIALMGRYVAGEKINFSGVDAALASMNDSAFITYSKKSNDVSRQILLKALEDLKLPYLPSEGNFVFHQLVVPLKDYQTHMADAGVLIGRAFPPADNWCRISLGTPQEMQWVADTMREFRKKSWI | not soluble |
| MGSDKIHHHHHHMSNIYDAVVVGSGPNGLAAAITLQRKGFAVLVLEAKDTIGGGLRTKELTLPGFKHDVCSAIHPMAVASPFFADIPLDKFGLRFTHAPIAAAHPFDHGGAAILSRSLKDTIALLGKDADNYKRLIEPVIESWPDIAADAMGPLRFPKHPLKMAAFGLNAIRSADCISKRFETEEAKGLWAGMAAHSIQPLTNWASAAIGLVLSAVGHLHGWPIPIGGSQAIADALGSYFISLGGTIQTNVEVTSLNQLPAARAVLFDVTPKQLLKITGDEFSGLYKKQLTNYRYGMGVFKVDWALSEPVPFTSDHCRQAGTVHLGNTFNEIALSEQETSSGKHPEKPFVLFAQQSKFDITRAPQGKHTAWAYCHVPNGSATDMTAAIENQLERFAPGFKDTILAKNTMNTVEIQAYNPNYIGGDINGGIIDIRQLYTRPAVKISPYRTPKKGIYICSSSTPPGGGVHGMCGFHAAQAVIQDLKKQYK | not soluble |
| KVVLISDVHVGSSQFLEDAWLDFLDFLKGESDSEEMREIASQVRYLVVAGDLVDGIGIYPDQEMELDILDVYEQYRKAADYFKEIPRHIRVIISPGNHDAVRQAEPQPALPERICADFPENVTFVGNPALVDLDGIRILIYHGRSIDDLVASVPGVSYHEPAGAVLEMLKRRHLAPTYGSRVSISPEKKDYFIIDPVPDIIHTGHVHTLGVQRYKNVLLVNSGTWQAQTEFQKRVNLVPVPARVPVVDLADFDVKILAFD | not soluble |
| MALKTDIRGMIWRYPDYFIVGREQCREFARAVKCDHPAFFSEEAAADLGYDALVAPLTFVTILAKYVQLDFFRHVDVGMETMQIVQVDQRFVFHKPVLAGDKLWARMDIHSVDERFGADIVVTRNLCTNDDGELVMEAYTTLMGQQGDGSARLKWDKESGQVIRTALEHHHHHH | not soluble |
| MPRLENTIDIKVPVNIAYNQWTQFETFPNFMSSVLQVKQLDDSHVWWQVEIGGHAIEWETEIIEQVPDDHIAWRSVSGPRHLGLVSFKHVDIHATRVHVEIEYEADMKAEVSATMTGLLEQKISEALTCYRQLLESRKRPAGGWRGRIAVGTDNAVRHLEHHHHHH | soluble |
| EVVVTGYGDFKKATYTGSASVLNTDKLESLPVVSVAQMMEANIPGLSSVASSSQPGSKATVRVRGIASMNASTEPLYVLDGVPVASRDMSGLSANASAGGLGLIETLNPADIESITVLKDAASASLYGAKGSNGVILI | not soluble |
| MAHHHHHHMLQRSLARLCAAAQRQGNKALAAEGRSFALVNREVTAIKEHIQSLVTNTNNEVLDHAGKYVLAAGGKLMRPALVVLMAHAMLPLDVSAHLLEEPIGSLDEVTPGTILPFLRLAEVTELIHTASLLHDDVIDNTDTRRGRPALHKVYDAKRAVLAGDYMLARASFYIATLQVPRIVILMTTALEELTSGELMQMDGCFDIPRYEQKSFCKTASLIANSLASTAVLAGPGNEALEQTAFDFGKHLGIAFQILDDCLDITGDEKMLGKPKLVDMKEGIATIPVLLVARRNAKVAEMVCRRFAEPGDAEFCLEAVEKEGAVAEAMHRADEHCRLGLESLHKLHHSPARDALESALSMVMNRKS | not soluble |
| NVYDLANELERAVRALPEYQAVLTAKSAIESDADAQVLWQDFLATQSKVQEMMQSGQMPSQEEQDEMSKLGEKIESNDLLKVYFDQQQRLSVYMSDIEKIVFAPMQDL | soluble |
| DLRGDLHMHTDYSEGAESLETMVEKAESMGYEYIAVTDHSRSQRIANGMDIETLKEQWKEIKSLSKRFRIKVLRGSEVEILKDGSLDYPDEILKELDVVVGAVHSGFAASEREMTGRIITALENKHLDILAHPSGRLLGKREAYAVNFGKVFEAAAENGKVMEINCQPSRLDLNDELIFRAKDYELKFCISTDSHSVSDLASMRYGLGQARRSWLEKEDIVNTYPYSRLKEVFKKLRD | not soluble |
| MQALQERLEKLENATGSEVWEVLKASEPELRQDLSSLQKLKADKESAAREALTALKTKKNELKNLKNDVESLKNEYKTYIEMVENGLKQSGLDIKQVVQVFERVLEESLSEKRLAILSTIDSAHISDIKSIKTPVKSILKLLEDPNKLQLRILVQSELREFSNSAIEIFRRSLWDLFQNQGIPMKNLGEMPNSEDFLQKIGELFQFSTDLDKLIAGNWGKSIENLISAAFGQLSNYCIDIIENERGEADFEWILKSSHDWAKNLSQILQKTVEKSNLESELKQEFEEKFNEKFVDFIKLITRKFLEKNIKEPTIFSNVAQMLKKFKISSEFNLSGDRDLQEPFYEPKFMSRWILVYYIVAKISEYPVLTQLFAPLKITVVSKKIFFF | not soluble |
| SGDAASHEERMNNYRKRVGRLFMEQKAAQPDAVKLPSGLVFQRIARGSGKRAPAIDDKCEVHYTGRLRDGTVFDSSRERGKPTTFRPNEVIKGWTEALQLMREGDRWRLFIPYDLAYGVTGGGGMIPPYSPLEFDVELISIKDGGKGRTAEEVDEILRKAEEDREDM | soluble |
| MMNQSRIKPVRMLILLRKLSPISRRIRIRNRLKQKTRSATIKSRCNPCLISVLANCYWCSSSASPPSGAATTACGGKNGSGLDSRVAFTGDNGAERTDPGVKTPGVSGQSEKG | not soluble |
| MDAYLDYISGIWSKIDKKFHDQDISAKVAILQLVARPYYYWIQENPAQEKPVVEESQPRKQDNLREITSKYGDALQVDSDTVKIVKRLNTDEFNKLKEDLRQLGFLYDAQLRGFKKKQ | not soluble |
| MWKNGAMRGCNKETGEFLGPSRSQQRRTALEVLVLSEKLAALTPAQLAKLPIPERLLPHITETKRITSHIARKRQLAFLAKQMRREDDTTLEAIREKLNASGIQAQREVATLHRTEQWRKRLLEEGDSALTELLNQYPQADCGKLRQLLRNSKTEQARNKAPQAFRELYQVLHGLIITQNSDNQHQTPQ | soluble |
